Laboratory results taken from patent publication US10274499B2, “SH2 domain variants” (THE UNIVERSITY OF WESTERN ONTARIO, priority 2012, dated 2019).

Assays:
[1] = system: seven fluorescein-labeled pTyr-containing peptides; assay: in-solution fluorescence polarization binding assay, set of seven peptides; settings: average over seven peptides, relative to the wild type of the same SH2 domain
Experimental: Each peptide was synthesized on the TentaGel amide resin (INTAVIS Inc.) and N-terminally labeled with fluorescein using NHS-fluorescein (Thermo Fisher Scientific). Each of the 13 variant and the wild-type SH2 domain was produced by overexpression in the Escherichia coli BL21(DE3) strain cultured in LB media (EMD Chemicals). Expression was induced by 0.3 mM isopropyl β-D-1-thiogalactopyranoside (IPTG), and the cell culture was incubated for 5 hours at 37° C. The cells were harvested by centrifuge, and broken on ice, in buffer solution containing 20 mM sodium phosphate, 0.1 M NaCl, 20 mM imidazole, 1 mg/ml lysozyme and 1% Triton-X 100, adjusted at pH 7.8. Affinity purification was performed with the Ni-NTA agarose resin (Qiagen Inc.), according to the manufacturer's instruction. […] Measurements of fluorescence polarization were conducted by titrating the SH2 domain concentration, while keeping the peptide concentration constant. Kd values were calculated with the GraphPad Prism software, by assuming the one-site binding model (GraphPad Software).
The determined Kd values of interaction between the 14 SH2 domains (including the wild-type) and seven peptides were listed in FIG. 7(a). […]
Fluorescence polarization assay was conducted to determine Kd values of the interaction between the wild-type or variant Src SH2 domain and seven fluorescein-labeled pTyr-containing peptides (FIG. 9a).

EGFR = target: T1, EGFR (Homo sapiens, UniProt P00533); assay: immunoprecipitation of GFP-fused SH2 domains with EGFR in HEK 293 cells; type: cell-based; settings: GFP-fusion expressed in HEK 293 cells, EGF 100 ng/ml, anti-GFP and anti-EGFR antibodies
T1 construct: endogenous in cells; host or cells: HEK 293
Source text: The three variant SH2 domains mentioned in the previous sentence were dubbed as 8V/10A/15L-substituted SH2 domains, or the TrM SH2 domains, in the following descriptions, as well as in FIG. 11 and FIG. 12. The wild-type (Wt) and TrM SH2 domains, subcloned into the pEGFPC2 vector, were expressed in the HEK 293 cells as a GFP-fusion protein. Methods used in this and the following sections are described below.
Anti-GFP rabbit polyclonal antibody was purchased from Sigma-Aldrich. Anti-EGFR rabbit polyclonal antibody was purchased from Millipore. Anti-p44/42 MAPK (Erk1/2) mouse monoclonal antibody, and anti-phospho-p44/42 MAPK (Thr202/Tyr204) mouse monoclonal antibody were purchased from Cell Signaling. HEK 293 cells were grown in Dulbecco's modification of Eagle's medium (DMEM, Sigma-Aldrich) supplemented with 10% fetal bovine serum (FBS, SAFC Biosciences), 50 units/ml penicillin and 50 μg/ml streptomycin (GIBCO Invitrogen Corp.) in a humidified atmosphere of 5% CO2 in air at 37° C. EGF (Invitrogen) at a final concentration of 100 ng/ml was added to the medium at the indicated time point. Transient transfections were carried out with jet-PEI (PolyPlus-Transfection; Illkirch, France) according to manufacturer's instruction. […]

average affinity increase, Kd[wild-type] divided by Kd[variant] [1]	binding to EGFR (immunoprecipitation) (EGFR)	Substance
1.4 fold	–	T8V: variant Fyn SH2 domain, Thr at position 8 to Val; SEQ ID NO:5 (RKDAERQLLSFGNPRGTFLIRESETVKGAYSLSIRDWDDMKGDHVKHYK; Synthetic construct T8V)
–	Weak binding	wild-type Grb2 SH2 domain: polypeptide between Met55 and Pro158 of the human Grb2 [reference compound]
–	did not show detectable binding	wild-type Src SH2 domain: human Src SH2 domain between Asp144 and Lys252; SEQ ID NO:18 [reference compound]
